Data taken from patent US20120172293A1 (Takeda / Millennium, published 2012).
Non-standard residues stand in square brackets, D forms with d. No end group written: not given here. *: point of attachment. X11 = ((1S)-1-carboxy-3-methylbutyl)carbamoyl, CC(C)C[C@H](NC(=O)*)C(=O)O; 1Nal = N[C@@H](Cc1cccc2ccccc12)C(=O)O; 2Nal = N[C@@H](Cc1ccc2ccccc2c1)C(=O)O; Tic = O=C(O)[C@@H]1Cc2ccccc2CN1; Cha = N[C@@H](CC1CCCCC1)C(=O)O; Cit = NC(=O)NCCC[C@H](N)C(=O)O; dIva = CC[C@@](C)(N)C(=O)O; 4Amb = NCc1ccc(C(=O)O)cc1; hSer = N[C@@H](CCO)C(=O)O; Aib = CC(C)(N)C(=O)O

T1: human Y2 receptor (human, UniProt P49146 1-381)
T1 construct: whole, on cells; used as membrane fraction of hY2R/CHO cells; also called human NPY2R; hY2R
T1 sequence (looked up): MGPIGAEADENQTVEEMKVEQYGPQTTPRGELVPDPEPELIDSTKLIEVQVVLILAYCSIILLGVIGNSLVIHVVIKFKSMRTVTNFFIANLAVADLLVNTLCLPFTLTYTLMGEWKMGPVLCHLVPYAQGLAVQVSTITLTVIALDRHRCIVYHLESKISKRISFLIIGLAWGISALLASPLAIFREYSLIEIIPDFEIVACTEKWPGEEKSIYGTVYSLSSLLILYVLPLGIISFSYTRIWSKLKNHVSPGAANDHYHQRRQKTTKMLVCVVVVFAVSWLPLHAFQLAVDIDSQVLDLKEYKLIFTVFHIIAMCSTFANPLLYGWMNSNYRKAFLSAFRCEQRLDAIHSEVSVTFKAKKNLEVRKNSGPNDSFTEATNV

B1: 4-Aminomethylbenzoyl-[Ala26, Ile28,31, Nal(2)36]-PYY(25-36) (peptide)
peptide: [4Amb]RAYINLITRQR[2Nal]-NH2
modifications: N-terminus assumed
SMILES: CC[C@H](C)[C@H](NC(=O)[C@H](Cc1ccc(O)cc1)NC(=O)[C@H](C)NC(=O)[C@H](CCCNC(=N)N)NC(=O)c1ccc(CN)cc1)C(=O)N[C@@H](CC(N)=O)C(=O)N[C@@H](CC(C)C)C(=O)N[C@H](C(=O)N[C@H](C(=O)N[C@@H](CCCNC(=N)N)C(=O)N[C@@H](CCC(N)=O)C(=O)N[C@@H](CCCNC(=N)N)C(=O)N[C@@H](Cc1ccc2ccccc2c1)C(N)=O)[C@@H](C)O)[C@@H](C)CC
notes: also called compound No. 14
B2: Ac-[D-Pro24, Cit27, Cha28,36, Aib31]-PYY(23-36) (peptide)
peptide: Ac-S[dP]RH[Cit][Cha]NL[Aib]TRQR[Cha]-NH2
SMILES: CC(=O)N[C@@H](CO)C(=O)N1CCC[C@@H]1C(=O)N[C@@H](CCCNC(=N)N)C(=O)N[C@@H](Cc1c[nH]cn1)C(=O)N[C@@H](CCCNC(N)=O)C(=O)N[C@@H](CC1CCCCC1)C(=O)N[C@@H](CC(N)=O)C(=O)N[C@@H](CC(C)C)C(=O)NC(C)(C)C(=O)N[C@H](C(=O)N[C@@H](CCCNC(=N)N)C(=O)N[C@@H](CCC(N)=O)C(=O)N[C@@H](CCCNC(=N)N)C(=O)N[C@@H](CC1CCCCC1)C(N)=O)[C@@H](C)O
notes: also called compound No. 146
B3: Ac-[D-Pro24, Cha27,36, Hse28, Aib31]-PYY(23-36) (peptide)
peptide: Ac-S[dP]RH[Cha][hSer]NL[Aib]TRQR[Cha]-NH2
SMILES: CC(=O)N[C@@H](CO)C(=O)N1CCC[C@@H]1C(=O)N[C@@H](CCCNC(=N)N)C(=O)N[C@@H](Cc1c[nH]cn1)C(=O)N[C@@H](CC1CCCCC1)C(=O)N[C@@H](CCO)C(=O)N[C@@H](CC(N)=O)C(=O)N[C@@H](CC(C)C)C(=O)NC(C)(C)C(=O)N[C@H](C(=O)N[C@@H](CCCNC(=N)N)C(=O)N[C@@H](CCC(N)=O)C(=O)N[C@@H](CCCNC(=N)N)C(=O)N[C@@H](CC1CCCCC1)C(N)=O)[C@@H](C)O
notes: also called compound No. 144
B4: Ac-[D-Pro24, D-Iva27, Cha28,36, Aib31]-PYY(23-36) (peptide)
peptide: Ac-S[dP]RH[dIva][Cha]NL[Aib]TRQR[Cha]-NH2
SMILES: CC[C@@](C)(NC(=O)[C@H](Cc1c[nH]cn1)NC(=O)[C@H](CCCNC(=N)N)NC(=O)[C@H]1CCCN1C(=O)[C@H](CO)NC(C)=O)C(=O)N[C@@H](CC1CCCCC1)C(=O)N[C@@H](CC(N)=O)C(=O)N[C@@H](CC(C)C)C(=O)NC(C)(C)C(=O)N[C@H](C(=O)N[C@@H](CCCNC(=N)N)C(=O)N[C@@H](CCC(N)=O)C(=O)N[C@@H](CCCNC(=N)N)C(=O)N[C@@H](CC1CCCCC1)C(N)=O)[C@@H](C)O
notes: also called compound No. 180
B5: [(1S)-1-carboxy-3-methylbutyl]carbamoyl-[D-Pro24, Cha27,28,36, Aib31]-PYY(23-36) (peptide)
peptide: X11-S[dP]RH[Cha][Cha]NL[Aib]TRQR[Cha]-NH2
SMILES: CC(C)C[C@H](NC(=O)N[C@@H](CO)C(=O)N1CCC[C@@H]1C(=O)N[C@@H](CCCNC(=N)N)C(=O)N[C@@H](Cc1c[nH]cn1)C(=O)N[C@@H](CC1CCCCC1)C(=O)N[C@@H](CC1CCCCC1)C(=O)N[C@@H](CC(N)=O)C(=O)N[C@@H](CC(C)C)C(=O)NC(C)(C)C(=O)N[C@H](C(=O)N[C@@H](CCCNC(=N)N)C(=O)N[C@@H](CCC(N)=O)C(=O)N[C@@H](CCCNC(=N)N)C(=O)N[C@@H](CC1CCCCC1)C(N)=O)[C@@H](C)O)C(=O)O
notes: also called compound No. 184
B6: 4-Aminomethylbenzoyl-[Ala26, Ile28,31, Nal(1)36]-PYY(25-36) (peptide)
peptide: [4Amb]RAYINLITRQR[1Nal]-NH2
modifications: N-terminus assumed
SMILES: CC[C@H](C)[C@H](NC(=O)[C@H](Cc1ccc(O)cc1)NC(=O)[C@H](C)NC(=O)[C@H](CCCNC(=N)N)NC(=O)c1ccc(CN)cc1)C(=O)N[C@@H](CC(N)=O)C(=O)N[C@@H](CC(C)C)C(=O)N[C@H](C(=O)N[C@H](C(=O)N[C@@H](CCCNC(=N)N)C(=O)N[C@@H](CCC(N)=O)C(=O)N[C@@H](CCCNC(=N)N)C(=O)N[C@@H](Cc1cccc2ccccc12)C(N)=O)[C@@H](C)O)[C@@H](C)CC
notes: also called compound No. 13
B7: 4-Aminomethylbenzoyl-[Ala26, Ile28,31, Tic36]-PYY(25-36) (peptide)
peptide: [4Amb]RAYINLITRQR[Tic]-NH2
modifications: N-terminus assumed
SMILES: CC[C@H](C)[C@H](NC(=O)[C@H](Cc1ccc(O)cc1)NC(=O)[C@H](C)NC(=O)[C@H](CCCNC(=N)N)NC(=O)c1ccc(CN)cc1)C(=O)N[C@@H](CC(N)=O)C(=O)N[C@@H](CC(C)C)C(=O)N[C@H](C(=O)N[C@H](C(=O)N[C@@H](CCCNC(=N)N)C(=O)N[C@@H](CCC(N)=O)C(=O)N[C@@H](CCCNC(=N)N)C(=O)N1Cc2ccccc2C[C@H]1C(N)=O)[C@@H](C)O)[C@@H](C)CC
notes: also called compound No. 17

What was measured:
[1] = target: T1, human Y2 receptor; test: RBA: [125I]-PYY displacement, hY2R/CHO membranes
How it was run: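 Bound radioligand was collected by filtration on PEI-treated GF/C filters, washed with Tris/MgCl₂/NaCl/CHAPS buffer pH 7.4, and counted by scintillation; IC₅₀ values were calculated.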

[2] = target: T1, human Y2 receptor; test: cell-based or functional assay

Row | Binder | IC50 Ratio (vs PYY(3-36)) [1] [ratio] | GBA EC50 Ratio (vs PYY(3-36)), [35S]GTPγS [2] [ratio]
1 | B1 | 14 | 6.9
2 | B2 | 36 | 5.6
3 | B3 | 22 | 4.5
4 | B4 | 8.1 | 6
5 | B5 | 1.5 | 2.9
6 | B6 | 7.6 | 3.6
7 | B7 | 180 | 66
